Experimental data taken from patent US20240424125A1 (Zymeworks, published 2024).
Each block holds one binder with its values, some of them ahead of it.

Assays:
[1] = target: T1, recombinant His-tagged human FRα (ACROBiosystems) (human, UniProt P15328 25-233); test: BLI (Octet RED96) as in Example 8: antibody captured, His-tagged hFRα as analyte, mean of n=2
T1 construct: also called hFRα; hFRα antigen; not shown: His tag
Procedure: (§1) The assay buffer used was KB buffer (kinetics buffer, composed of PBS pH 7.4, 0.1% BSA, 0.02% Tween 20, 0.05% sodium azide) supplemented with 0.06% Tween 20 and in some instances also with 1% BSA. The experiment was conducted at 30° C. with a shake speed of 1000 rpm.
(§2) Data analysis was performed using Data Analysis Software 9.0 (ForteBio, Fremont CA). The reference-subtracted binding curves were globally fitted to the 1:1 interaction model to generate the binding kinetic parameters kₒₙ, koff, and the dissociation constant KD.

[2] = target: T2, human FRα on cells (human, UniProt P15328 25-234); test: apparent Kd, flow cytometry on IGROV-1 cells (endogenous FRα), as in Example 16
T2 construct: Transiently expressed on HEK293-6e, CHO-S or HEK293 microarray cells, or endogenous on JEG-3, HEC-1-A, IGROV-1, OVCAR-3, H2110, KB-HeLa and T-47D cells; also called human folate receptor alpha; FOLR1
T2 sequence (P15328 25-234 limits assumed): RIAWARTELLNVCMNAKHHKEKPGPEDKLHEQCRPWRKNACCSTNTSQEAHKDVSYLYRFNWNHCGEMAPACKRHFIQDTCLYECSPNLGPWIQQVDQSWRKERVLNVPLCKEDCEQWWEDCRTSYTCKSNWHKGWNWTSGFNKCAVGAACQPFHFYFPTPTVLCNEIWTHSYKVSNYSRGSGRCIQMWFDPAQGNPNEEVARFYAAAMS
Procedure: (§3) Briefly, cells were seeded at 50,000 cells/well in V-bottom 96-well plates and treated with antibody for 24 hours at 4° C. to prevent internalization. […] Following incubation and washing, fluorescence was detected by flow cytometry on a BD LSRFortessa™ Cell Analyzer (BD Biosciences, Franklin Lake, NJ) with 1,000 minimum events collected per well. AF647/APC-A GeoMean (fluorescence signal geometric mean, proportional to anti-Human AF647 binding) in live cell population was plotted using GraphPad Prism Version 9 (GraphPad Software, San Diego, CA).

[3] = target: T2, human FRα on cells; test: apparent Kd, flow cytometry on JEG-3 cells (endogenous FRα), as in Example 16
Procedure: as §3

[4] = target: T1, recombinant His-tagged human FRα …; test: SPR (Biacore T200): hFRα amine-coupled to CM5 chip at medium antigen density, one-armed antibody injected, 1:1 Langmuir fit, mean of n=2
Procedure: (§4) CM5 Series S sensor chip, Biacore™ amine coupling kit (NHS, EDC and 1 M ethanolamine), and 10 mM sodium acetate buffers were purchased from GE Healthcare Life Science (Mississauga, ON, Canada). PBS running buffer with 0.05% Tween20 (PBST) was purchased from Teknova Inc. (Hollister, CA). Recombinant human FRα was purchased from ACRObiosystems (Newark, DE).
(§5) Screening of the variants for binding to hFRα antigen was conducted in two steps: capture of hFRα onto surface, followed by injection of three to five concentrations of variant. The hFRα surface was prepared on a CM5 Series S sensor chip by standard amine coupling methods as described by the manufacturer (GE Healthcare Life Science, Mississauga, ON, Canada). The immobilization of the hFRα was performed using Biacore™ T200 immobilization wizard with an amine coupling method aiming for resonance units (RUs) ranging from 5 to 200 RUs. Using multi-cycle kinetics, three to five concentrations of a two-fold dilution series of samples starting at 300 nM with a blank buffer control were injected at 50 uL/min for 180s with a 600s dissociation phase, resulting in a set of sensorgrams with a buffer blank reference. The hFRα surface was regenerated to prepare for the next injection cycle by one pulse of 10 mM glycine/HCl pH 1.5 for 30s at 30 uL/min. Blank-subtracted sensorgrams were analyzed using Biacore™ T200 Evaluation Software v3.0. The blank-subtracted sensorgrams were then fit to the 1:1 Langmuir binding model.

[5] = target: T1, recombinant His-tagged human FRα …; test: SPR (Biacore T200): hFRα amine-coupled to CM5 chip at high antigen density, one-armed antibody injected, 1:1 Langmuir fit, mean of n=2
Procedure: as §4, §5

[6] = target: T1, recombinant His-tagged human FRα …; test: SPR (Biacore T200): hFRα amine-coupled to CM5 chip at medium-low antigen density, one-armed antibody injected, 1:1 Langmuir fit, mean of n=2
Procedure: as §4, §5

[7] = target: T1, recombinant His-tagged human FRα …; test: BLI (Octet RED96): antibody on anti-human IgG Fc capture biosensor, His-tagged hFRα as analyte, 1:1 global fit, mean of n=2
Procedure: as §1, §2

T1 sequence (P15328 25-233 limits assumed): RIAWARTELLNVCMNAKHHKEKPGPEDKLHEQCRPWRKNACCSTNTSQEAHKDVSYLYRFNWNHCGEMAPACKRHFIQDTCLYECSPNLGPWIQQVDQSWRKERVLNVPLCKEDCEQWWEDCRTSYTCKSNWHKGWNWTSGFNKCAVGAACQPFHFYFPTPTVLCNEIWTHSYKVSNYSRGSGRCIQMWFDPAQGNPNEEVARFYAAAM

B2: v32597 (antibody, V domains shown)
VH: EVQLLESGGGLVQPGGSLRLSCAVSGFSLSSYGVSWVRQAPGKGLEWIGAVNSGGSAYYADSVKGRSTISRDNSKNTVYLQMNSLRAEDTAVYYCARSGSGYPMDYLAIWGQGTLVTVSS
VL: DYQMTQSPSSVSASVGDRVTITCRASQSIGDWLAWYQQKPGKAPKLLIYEASTLASGVPSRFSGSGSGTDFTLTISSVQPEDAATYYCQQGYGRSNVDNIFGGGTKVEVK
notes: One-armed antibody (OAA) format, equivalent of v30384; also called OAA v30384 equivalent; one-armed antibody equivalent of v30384
Kd [4]: 139 nM
Kd [5]: 143 nM
Kd [6]: 146 nM

B3: v36167 (antibody, human IgG1, kappa, V domains shown)
VH: EVQLLESGGGLVQPGGSLRLSCAVSGFSLSSYGVSWVRQAPGKGLEWIGAVNSGGSAYYADSFKGRSTISRDNSKNTVYLQMNSLRAEDTAVYYCARSGSGYPMDYLAIWGQGTLVTVSS
VL: DYQMTQSPSSVSASVGDRVTITCRASQSIWYWLAWYQQKPGKAPKLLIYEASTLASGVPSRFSGSGSGTDFTLTISSVQPEDAATYYCQQGYGRWHILNIFGGGTKVEVKR
Kd [1]: 7.29 nM

B4: v36168 (antibody, human IgG1, kappa, V domains shown)
VH: EVQLLESGGGLVQPGGSLRLSCAVSGFSLSLYGVSWVRQAPGKGLEWIGSVNSGGSAYYADSVKGRSTISRDNSKNTVYLQMNSLRAEDTAVYYCARSGSGYPMDYLAIWGQGTLVTVSS
VL: DYQMTQSPSSVSASVGDRVTITCRASQSIWYWLAWYQQKPGKAPKLLIYEASTLASGVPSRFSGSGSGTDFTLTISSVQPEDAATYYCQQGYGRWHILNIFGGGTKVEVKR
Kd [1]: 4.97 nM

B6: v30389 (antibody, human IgG1, kappa)
heavy 1: EVQVLESGGGLVQPGGSLRLSCAVSGFSLSSYGVSWVRQAPGKGLEWIGAVNSGGSAYYADSVKGRSTISRDNSKNTVYLQMNSLRAEDTAVYYCARSGSGYPMDYLAIWGQGTLVTVSSASTKGPSVFPLAPSSKSTSGGTAALGCLVKDYFPEPVTVSWNSGALTSGVHTFPAVLQSSGLYSLSSVVTVPSSSLGTQTYICNVNHKPSNTKVDKKVEPKSCDKTHTCPPCPAPELLGGPSVFLFPPKPKDTLMISRTPEVTCVVVDVSHEDPEVKFNWYVDGVEVHNAKTKPREEQYNSTYRVVSVLTVLHQDWLNGKEYKCKVSNKALPAPIEKTISKAKGQPREPQVYVYPPSRDELTKNQVSLTCLVKGFYPSDIAVEWESNGQPENNYKTTPPVLDSDGSFALVSKLTVDKSRWQQGNVFSCSVMHEALHNHYTQKSLSLSPG
heavy 2: not shown
light: DYQMTQSPSSVSASVGDRVTITCRASQSIGDWLAWYQQKPGKAPKLLIYEASTLASGVPSRFSGSGSGTDFTLTISSVQPEDAATYYCQQGYGRSNVDNIFGGGTKVEVKRTVAAPSVFIFPPSDEQLKSGTASVVCLLNNFYPREAKVQWKVDNALQSGNSQESVTEQDSKDSTYSLSSTLTLSKADYEKHKVYACEVTHQGLSSPVTKSFNRGEC
notes: Humanized IgG1/kappa, HetFc; also called 3bH4L
Kd [7]: 100 nM

B7: v35354 (antibody, human IgG1, kappa, V domains shown)
VH: EVQLLESGGGLVQPGGSLRLSCAVSGFSLSLYGVSWVRQAPGKGLEWIGAVNSGGSAYYADSFKGRSTISRDNSKNTVYLQMNSLRAEDTAVYYCARSGSGYPMDYLAIWGQGTLVTVSS
VL: DYQMTQSPSSVSASVGDRVTITCRASQSIWYWLAWYQQKPGKAPKLLIYEASTLASGVPSRFSGSGSGTDFTLTISSVQPEDAATYYCQQGYGRWHILNIFGGGTKVEVKR
Kd [1]: 3.13 nM

B8: v31424 (antibody, human IgG1, kappa)
heavy: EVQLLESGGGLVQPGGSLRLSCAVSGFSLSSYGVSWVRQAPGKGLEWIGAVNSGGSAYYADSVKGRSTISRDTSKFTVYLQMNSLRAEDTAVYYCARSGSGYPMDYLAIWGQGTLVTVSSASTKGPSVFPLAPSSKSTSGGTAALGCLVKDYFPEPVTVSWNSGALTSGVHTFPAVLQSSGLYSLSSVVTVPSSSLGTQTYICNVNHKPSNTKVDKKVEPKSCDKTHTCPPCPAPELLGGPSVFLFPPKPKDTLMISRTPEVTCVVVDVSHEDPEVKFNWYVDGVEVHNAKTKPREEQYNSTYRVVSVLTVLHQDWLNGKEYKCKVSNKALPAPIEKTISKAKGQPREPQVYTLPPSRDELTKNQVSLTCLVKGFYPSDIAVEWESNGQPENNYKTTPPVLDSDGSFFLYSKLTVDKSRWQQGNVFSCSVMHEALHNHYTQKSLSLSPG
light: DYQMTQSPSSVSASVGDRVTITCRASQSIGDWLAWYQQKPGKAPKLLIYEASTLASGVPSRFSGSGSGTDFTLTISSVQPEDAATYYCQQGYGRSNVDNIFGGGTKVEVKRTVAAPSVFIFPPSDEQLKSGTASVVCLLNNFYPREAKVQWKVDNALQSGNSQESVTEQDSKDSTYSLSSTLTLSKADYEKHKVYACEVTHQGLSSPVTKSFNRGEC
notes: Humanized IgG1/kappa, HomoFc; also called 3eH4L
Kd [7]: 110 nM

B11: v31422 (antibody, human IgG1, kappa)
heavy: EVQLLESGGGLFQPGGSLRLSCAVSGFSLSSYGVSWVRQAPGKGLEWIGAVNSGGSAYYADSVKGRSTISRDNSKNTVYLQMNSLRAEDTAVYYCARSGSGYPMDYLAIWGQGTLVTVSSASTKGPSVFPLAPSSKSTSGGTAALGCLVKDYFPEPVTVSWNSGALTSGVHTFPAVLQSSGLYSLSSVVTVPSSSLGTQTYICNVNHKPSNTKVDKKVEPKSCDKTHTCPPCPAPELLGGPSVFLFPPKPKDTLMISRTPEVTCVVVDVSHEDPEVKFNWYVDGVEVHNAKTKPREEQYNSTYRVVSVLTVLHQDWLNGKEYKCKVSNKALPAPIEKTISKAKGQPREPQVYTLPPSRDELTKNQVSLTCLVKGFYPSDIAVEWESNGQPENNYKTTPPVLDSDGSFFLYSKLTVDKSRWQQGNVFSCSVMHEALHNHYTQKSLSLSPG
light: DYQMTQSPSSVSASVGDRVTITCRASQSIGDWLAWYQQKPGKAPKLLIYEASTLASGVPSRFSGSGSGTDFTLTISSVQPEDAATYYCQQGYGRSNVDNIFGGGTKVEVKRTVAAPSVFIFPPSDEQLKSGTASVVCLLNNFYPREAKVQWKVDNALQSGNSQESVTEQDSKDSTYSLSSTLTLSKADYEKHKVYACEVTHQGLSSPVTKSFNRGEC
notes: Humanized IgG1/kappa, HomoFc; also called 3cH4L
Kd [7]: 180 nM

B12: v31423 (antibody, human IgG1, kappa, V domains shown)
VH: EVQLLESGGGLVQPGGSLRLSCAVSGFSLSSYGVSWVRQAPGKGLEWIGAVNSGGSAYYADSVKGRSTISRDTSKNTVYLQMNSLRAEDTAVYYCARSGSGYPMDYLAIWGQGTLVTVSS
VL: DYQMTQSPSSVSASVGDRVTITCRASQSIGDWLAWYQQKPGKAPKLLIYEASTLASGVPSRFSGSGSGTDFTLTISSVQPEDAATYYCQQGYGRSNVDNIFGGGTKVEVKR
notes: Humanized IgG1/kappa, HomoFc; also called 3dH4L
Kd [7]: 110 nM

B13: v32596 (antibody, V domains shown)
VH: QSVKESEGGLFKPTDTLTLTCTVSGFSLSSYGVSWVRQAPGNGLEWIGAVNSGGSAYYANWAKSRSTITRNTNLFTVTLKMTSLAVADTATYFCARSGSGYPMDYLAIWGPGTLVTVSS
VL: AYDMTQTPASVEVAVGGTVTIKCQASQSIGDWLAWYQQKPGQPPRLLIYEASTLASGVPSRFSGSGSGTQFTLTISGVECADAATYYCQQGYGRSNVDNIFGGGTEVVVK
notes: One-armed antibody (OAA) format, said to be the equivalent of the FSA v23924; also called OAA v23924 equivalent; one-armed antibody equivalent of v23924
Kd [4]: 30.3 nM
Kd [5]: 30 nM
Kd [6]: 37.9 nM

Other lines, results leading:

Kd [1]: 4.98 nM
Kd [2]: 1.31 nM
Kd [3]: 0.44 nM
B1: v35356 (antibody, human IgG1, kappa, V domains shown)
VH: EVQLLESGGGLVQPGGSLRLSCAVSGFSLSSYGVSWVRQAPGKGLEWIGAVNSGGSAYYADSFKGRSTISRDNSKNTVYLQMNSLRAEDTAVYYCARSGSGYPMDYHPIWGQGTLVTVSS
VL: DYQMTQSPSSVSASVGDRVTITCRASQSIGDWLAWYQQKPGKAPKLLIYEASTLASGVPSRFSGSGSGTDFTLTISSVQPEDAATYYCQQGYGRWHILNIFGGGTKVEVKR

Kd [4]: 80.8 nM
Kd [5]: 82 nM
Kd [6]: 91.5 nM
B5: v32598 (antibody, V domains shown)
VH: EVQVLESGGGLVQPGGSLRLSCAVSGFSLSSYGVSWVRQAPGKGLEWIGAVNSGGSAYYADWAKGRSTISRDNSKNTVYLQMNSLRAEDTAVYYCARSGSGYPMDYLAIWGQGTLVTVSS
VL: DYQMTQSPSSVSASVGDRVTITCRASQSIGDWLAWYQQKPGKAPKLLIYEASTLASGVPSRFSGSGSGTDFTLTISSVQPEDAATYYCQQGYGRSNVDNIFGGGTKVEVK
notes: One-armed antibody (OAA) format, equivalent of v30399; also called OAA v30399 equivalent; one-armed antibody equivalent of v30399

Kd [7]: 160 nM
B9: v31425 (antibody, human IgG1, kappa)
heavy: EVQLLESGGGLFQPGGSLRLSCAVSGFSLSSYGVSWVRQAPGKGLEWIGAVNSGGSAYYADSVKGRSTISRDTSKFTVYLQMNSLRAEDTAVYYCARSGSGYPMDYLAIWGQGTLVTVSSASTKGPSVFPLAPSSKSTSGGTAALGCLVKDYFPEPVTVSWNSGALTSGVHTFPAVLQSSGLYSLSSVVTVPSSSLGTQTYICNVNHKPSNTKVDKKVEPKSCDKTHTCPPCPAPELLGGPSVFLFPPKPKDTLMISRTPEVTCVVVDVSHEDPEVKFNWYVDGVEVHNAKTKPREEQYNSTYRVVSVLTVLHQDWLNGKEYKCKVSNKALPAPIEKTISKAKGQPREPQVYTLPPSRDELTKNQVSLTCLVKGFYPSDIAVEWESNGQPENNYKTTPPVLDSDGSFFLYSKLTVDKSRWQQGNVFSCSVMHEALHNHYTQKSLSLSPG
light: DYQMTQSPSSVSASVGDRVTITCRASQSIGDWLAWYQQKPGKAPKLLIYEASTLASGVPSRFSGSGSGTDFTLTISSVQPEDAATYYCQQGYGRSNVDNIFGGGTKVEVKRTVAAPSVFIFPPSDEQLKSGTASVVCLLNNFYPREAKVQWKVDNALQSGNSQESVTEQDSKDSTYSLSSTLTLSKADYEKHKVYACEVTHQGLSSPVTKSFNRGEC
notes: Humanized IgG1/kappa, HomoFc; also called 3fH4L

Kd [1]: 7.22 nM
B10: v35358 (antibody, human IgG1, kappa, V domains shown)
VH: EVQLLESGGGLVQPGGSLRLSCAVSGFSLSSYGVSWVRQAPGKGLEWIGAVNSGGSAYYADSFKGRSTISRDNSKNTVYLQMNSLRAEDTAVYYCARSGSGYPMDYHPIWGQGTLVTVSS
VL: DYQMTQSPSSVSASVGDRVTITCRASQSIWYWLAWYQQKPGKAPKLLIYEASTLASGVPSRFSGSGSGTDFTLTISSVQPEDAATYYCQQGYGRWHILNIFGGGTKVEVKR
